# Data published in article PMC9394524.
# Target: Kel1 (UniProt P38853)
# Test: GFP-trap IP of Kel1-GFP, anti-FLAG blot
# Conditions: reference: wild-type Sst2-3xFLAG; sites S539
substance,measurement,value
RGS Sst2 (from UniProt P11972) S539A,binding against the reference,stronger
